Laboratory results taken from the supplement of paper PMC12042874.
± gives the uncertainty stated by the source.

Assay: amyloid nucleation score (Sup35N fusion, yeast selection) (log enrichment); library NNK3; higher = more nucleation; inactive = no reads after selection
Method in brief: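 For the nucleation score, DiMSum gave the log enrichment of output over input reads, centred on the mode score of non-aggregating sequences. Psi-negative yeast expressing Sup35N fused to peptides of 20 random codons were induced with 100 μM copper sulfate for 24 hours and grown 7 days at 30°C on medium lacking adenine and uracil. Input and output plasmid inserts were Illumina-sequenced, and sequences with under 100 input reads were excluded.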

| Substance | amyloid nucleation score |
| --- | --- |
| YSSECALWNCRACVLYIHYR | 1.27 ± 0.16 |
| PYGKFRLNPLD | 0.652 ± 0.17 |
| PFNRVVVHSDAARGCRPCRP | inactive |
| LQSSMSIYSQFWSVDSLFYE | 0.04 ± 0.66 |
| GFLKCVGVRLDDSRGVVCAT | inactive |
| PKEYTRAGNVSSRRGLFYHF | inactive |
| VHTYLSAEWLVFPRHFAVYK | inactive |
| RWFLSWWIYFEVKPNDNSFF | inactive |
| THYEVWGLT | inactive |
| VYFSDVV | inactive |
| RGLQELLWI | -0.999 ± 1.9 |
| AFGLTVFE | inactive |
| DLTSIVWSRAYVVSY | inactive |
| NFIYILLSIINYWWCTYIVY | inactive |
| YYHLGLLDVSINEIRT | inactive |
| DQAIVLVNFVSASSVPPKIF | 0.498 ± 0.25 |
| QYSYSPGCRYLKVMLSNNSE | inactive |
| SWFWVHHEFVFKALGTLIRT | inactive |
| SSLQHSAW | inactive |
| IIGWASWCVGKGHLTFCQLV | inactive |
| LTVCV | inactive |
| IEAEHYCLLLVFLQVGLSSA | inactive |
| RFLLHLML | -0.4 ± 0.45 |

| Substance | amyloid nucleation score |
| --- | --- |
| FNANINNNGIRFRREVNLCW | inactive |
| IAFEVY | inactive |
| DATDCVRASMFMSFDASRH | 1.29 ± 0.13 |
| VRRKDSNSCVSSHTASQSGW | inactive |
| GAFSYEVFPTGRPLFKTGGH | inactive |
| RAGYVWTAVLRPHSNVAWFV | inactive |
| YGHFPQCVPLIFCYRRSMVT | inactive |
| SLILALFSGISSDF | 0.122 ± 0.37 |
| YLTVWFTKKLCVLFLFNIWK | inactive |
| TNTNTCL | inactive |
| VDNWFVFFYGYSGLLYGSHY | inactive |
| LAGRHVVMWLQLMAHDIENM | inactive |
| MSNRVMLKNYSLELEEIGRK | inactive |
| APKVQGDCRNTGCAPMVHKK | inactive |
| RYWWNYWLLPRWFFVQLGSC | inactive |
| DIERGFGDSCKNGHFAVGSV | -0.629 ± 1.1 |
| RRALYKLSSKESWPVDCNSV | inactive |
| SLVSYINGKVKNVPCKSCCY | inactive |
| YWSIFTLVVPMRFAFIWS | inactive |
| SVERILLYGRCCFVRRA | 0.403 ± 0.2 |
| YYFRRVWTCPLIAQIIKSDL | 0.39 ± 0.71 |
| DNVIYPASYGVVRRNTRHGF | inactive |
| YWDVNQGVYGINYGTVSHS | 0.256 ± 0.43 |

| Substance | amyloid nucleation score |
| --- | --- |
| ASSLMQ | inactive |
| IPFLDKGYGR | inactive |
| NTWISMVCLLLLSDSNHTVV | 1.84 ± 0.082 |
| LACRFILNAEVEICLAWKLG | inactive |
| SMCMRCLSVSKKKAQKSDEP | inactive |
| SISPVSPGIRAKITTAEMVR | -0.201 ± 1.1 |
| YNMFNTLVDRVQLRGLCYGV | inactive |
| FESMGFHPRSVIYEYVCELN | inactive |
| MYVTIGASNKSYRLLFVARW | -0.368 ± 0.75 |
| AAHCYNGVLKGVI | inactive |
| LVLLHVLGERSSAPRRTVMR | inactive |
| DVLGVSSASERAFGFENRAL | inactive |
| LAPGRLCLMGIKRTTSWWSS | inactive |
| ARHVLAGCKRMLYHFEGRVG | -0.643 ± 1.3 |
| AILLWNCLHSSVSLLKKAYS | -0.518 ± 1.4 |
| FRNRGLNSNMNYSSFNVQSM | -0.124 ± 0.52 |
| KLQEDKLGPSKNKPSVHLCF | inactive |
| RINESRLYLSEVKYGLTCVR | inactive |
| LGYTQSVTVMRLMSQYKKAG | -0.334 ± 0.55 |
| YTAKYGGFISLYR | 0.691 ± 0.15 |
| YSYTILHNFNKCSVKTLIFF | 2.38 ± 0.058 |
| VVCDNYG | 0.607 ± 0.23 |
| LRGMDYVCDEPLYVTLWVNR | inactive |

| Substance | amyloid nucleation score |
| --- | --- |
| GFMGFVTSHVKMTGNMCNEI | inactive |
| RSANLICLSPLSIIIRDKTL | inactive |
| EMSFY | inactive |
| TCECDGFLFFRRCFNWG | inactive |
| QVILHHMADKKAFISTSSSS | 1.52 ± 0.074 |
| LSIVQD | -0.413 ± 1.1 |
| CSQPCRHFYKVKGGYTFKCL | inactive |
| LSFVCTEETHGTNDSAGYNF | inactive |
| TWLGLLCREGSSNWV | inactive |
| VKLFKVPLVLSMRL | inactive |
| SAIPKGKATITFPPLKSFVR | 1.02 ± 0.13 |
| VFLACNYFILSRNDLKWGYP | 2.56 ± 0.06 |
| RRVTFGGMAHSERKRYCLFT | inactive |
| FLWSLLYIFIVCGFCNPSRR | inactive |
| VIFTIHNGT | inactive |
| LHPCEYALM | -1.4 ± 2.5 |
| IFVWYMNVSCGMVDRYGLPM | inactive |
| YRTIVVLSNFFNILSFSKNQ | 0.718 ± 0.15 |
| EQIGGI | inactive |
| LFKLSMQLCNT | 1.71 ± 0.076 |
| QLDHGH | inactive |
| FFYDLMYLIMV | inactive |
| IWPNRHGLKNVLRDQREATL | inactive |

| Substance | amyloid nucleation score |
| --- | --- |
| LVTPSSTALFWSNFLWSELP | inactive |
| TSNALYLLLLRHLYNMLLHV | inactive |
| SSCMAFIMGWKYITMD | inactive |
| CIYNVKALIQRVWIMIEVTS | 0.707 ± 0.13 |
| CRVSGGTCMTGISDRRRERI | inactive |
| LCHVVSDMVLSIQHYHACLS | inactive |
| FGSNTGYVIEGRLAVGFEKL | inactive |
| MKYRTALHTF | -0.961 ± 1.9 |
| MRYVHRCSRWYLLQQLLRIH | inactive |
| LVLMSEGFM | inactive |
| CDVSGSCPGRSPARLKEGSR | inactive |
| DFNLNEVDTDMGFSLSESL | inactive |
| DLGRNYIVNGIL | inactive |
| MLNNNRWVGVFRLCWNVVWS | inactive |
| FFNVELLMIDCGFYEFHTDD | 2.1 ± 0.056 |
| RIITLNRHIRRVFRMGCRSM | inactive |
| PLLIAVQWTMTAGCRSHKLL | -0.781 ± 2.5 |
| KYRVGMSSWFNLAHYGNLCG | 0.228 ± 0.25 |
| SSAELV | inactive |
| LAFYNQHWNFSMRSGMQGFK | 1.05 ± 0.23 |
| GCFLNNMLIGF | inactive |
| SMNNWGFDNICSQVCPLAAM | inactive |
| HIVNLFRLYYIAMWGSVCHV | inactive |

| Substance | amyloid nucleation score |
| --- | --- |
| ISTRPSM | inactive |
| MGTRFVLGPVQNLCDIGSAW | inactive |
| CCLEILGTLFN | inactive |
| IRTSGSMYIISIWRWVGRTL | inactive |
| STSICIGLLYAFVFEARVLC | inactive |
| AAKYFCNCRGYFAPRLKC | inactive |
| CISSCYWWFGFYVLKWE | inactive |
| CPLLSGFDESWDVEYDAQGD | inactive |
| IHVMSWKQSYSI | 0.949 ± 0.15 |
| YSWYEDPWWGERFWP | inactive |
| CCMVYGGYMM | inactive |
| LNEFIKYLDICKFFSCSGRN | 1.61 ± 0.1 |
| DRCGVFNTPYLVNSELILC | inactive |
| MEVLLVIYSDCERARSDTNI | inactive |
| LIVGKNNVPMFTSNKFLVFS | -0.508 ± 0.8 |
| TMAEGL | inactive |
| SRFNMFNLS | 0.163 ± 0.34 |
| VLCCLDYIYPVGALGYYACI | inactive |
| TCHLSKHEISYQLGDTNGHC | -0.516 ± 0.9 |
| SQWIIGFTVTCFSSCKILKM | inactive |
| LYVTILNVLLLHMTHSLFSG | inactive |
| VRGIAIACWSQFCNWRICCR | -0.231 ± 0.82 |
| LWQGNMM | -1.07 ± 1.9 |

| Substance | amyloid nucleation score |
| --- | --- |
| WNFGFGVWRFTAGG | 1.33 ± 0.067 |
| SFNCPNAWSVYLL | inactive |
| RLLLMSRSLMIRFVLSLVLE | inactive |
| ANRLC | inactive |
| GVLSYNMIHT | inactive |
| HQSISGWLVRGLTAGSGAVC | -0.496 ± 0.96 |
| PMVISHMGLFFLKVGISR | inactive |
| VGNLGS | inactive |
| LRLTIMSGIRVPVFYEHSFM | -0.443 ± 0.96 |
| TWDICFSTLFLMPRMWFGHL | inactive |
| VLLARIDAVFITVLR | 1.25 ± 0.12 |
| VASSKQYLGTVTYLDGVA | inactive |
| VSELPSACDNYIYCCNG | 0.326 ± 0.2 |
| IMYLRETGTK | inactive |
| GKARQSLHIGSSLLTFMA | inactive |
| NFRFPTNGNYGNYLKKESFV | inactive |
| AGRDIIMYNRAWFNISAA | inactive |
| DISSILVNTWLFDWKLNP | inactive |
| APVCQWATKARIKCAHWRRT | inactive |
| TDILLYMIFVLHVVSNGVLG | inactive |
| INLTYRVTVRVQISAPGMCA | -0.206 ± 0.65 |
| GYIRPALMARGYIVVNSANI | inactive |
